Measurements from paper PMC7225057 (Journal of molecular biology, 2020).

Target: FITC-sCT(22–32) (salmon, FITC label)
Assay: fluorescence polarisation

- Kd: 0.28 µM
- pKD: 6.56
B1: RAMP1-CTR.34–141 WT (tethered RAMP1-CTR ECD fusion, AMY1 receptor ECD) (receptor)
chain: TTACQEANYGALLRELCLTQFQVDMEAVGETLWCDWGRTIRSYRELADCTWHMAEKLGCFWPNAEVDRFFLAVHGRYFRSCPISGRAVIEPKPFLYVVGRKKMMDAQYKCYDRMQQLPAYQGEGPYCNRTWDGWLCWDDTPAGVLSYQFCPDYFPDFDPSEKVTKYCDEKGVWFKHPENNRTWSNYTMCNAFTPEK
modifications: N-glycosylated (HEK293S GnTI−, enzyme treatment: none)
